Results published in paper PMC8210318.

Tests used:
RPA heterotrimer [1] = target: T1, RPA heterotrimer (UniProt P27694+P15927+P35244); test: fluorescence anisotropy; conditions: EMSA: 10 mM Tris pH 7.5, 50 ug/ml BSA, 5% glycerol, 25 mM DTT, 37 C 10 min, 25 nM DNA, 5% TBE gel, anisotropy: same buffer, 30 C
RPA heterotrimer [2] = target: T1, RPA heterotrimer; test: EMSA; conditions: 25 nM DNA, EMSA: 10 mM Tris pH 7.5, 50 ug/ml BSA, 5% glycerol, 25 mM DTT, 37 C 10 min, 5% TBE gel

T1 sequence (P27694 whole entry, chain 1 of 3): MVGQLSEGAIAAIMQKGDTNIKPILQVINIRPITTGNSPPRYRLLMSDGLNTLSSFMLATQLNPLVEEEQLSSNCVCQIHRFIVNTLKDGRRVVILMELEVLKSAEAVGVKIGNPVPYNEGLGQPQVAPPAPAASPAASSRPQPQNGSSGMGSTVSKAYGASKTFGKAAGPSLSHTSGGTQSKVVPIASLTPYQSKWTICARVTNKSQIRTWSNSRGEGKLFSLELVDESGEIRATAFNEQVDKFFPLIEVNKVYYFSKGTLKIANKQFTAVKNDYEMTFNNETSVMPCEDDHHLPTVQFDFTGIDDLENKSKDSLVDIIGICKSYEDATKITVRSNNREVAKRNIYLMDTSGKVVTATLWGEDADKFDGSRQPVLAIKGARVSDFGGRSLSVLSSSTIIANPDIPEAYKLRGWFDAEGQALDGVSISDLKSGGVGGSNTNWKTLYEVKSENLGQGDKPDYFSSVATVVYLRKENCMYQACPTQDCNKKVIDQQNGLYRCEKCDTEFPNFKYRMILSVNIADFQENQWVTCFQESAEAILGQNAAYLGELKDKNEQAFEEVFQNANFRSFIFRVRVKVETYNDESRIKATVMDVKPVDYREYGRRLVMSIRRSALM
T1 sequence (P15927 whole entry, chain 2 of 3): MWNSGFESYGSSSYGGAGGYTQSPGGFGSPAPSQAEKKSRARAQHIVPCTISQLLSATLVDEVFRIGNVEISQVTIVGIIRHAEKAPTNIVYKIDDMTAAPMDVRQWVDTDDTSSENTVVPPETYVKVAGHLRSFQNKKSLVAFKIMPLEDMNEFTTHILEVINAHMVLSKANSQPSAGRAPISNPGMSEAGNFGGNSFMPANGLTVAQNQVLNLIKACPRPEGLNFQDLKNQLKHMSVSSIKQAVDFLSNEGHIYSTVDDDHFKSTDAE
T1 sequence (P35244 whole entry, chain 3 of 3): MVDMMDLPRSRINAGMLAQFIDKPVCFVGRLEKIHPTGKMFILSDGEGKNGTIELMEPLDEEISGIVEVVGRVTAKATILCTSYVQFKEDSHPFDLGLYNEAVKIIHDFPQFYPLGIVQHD

Sequence	Kd (RPA heterotrimer [1]; with 500 nM BSA as control) [nM]	Kd (RPA heterotrimer [1]; with 500 nM N-HelQ, which displaces RPA) [nM]	binding signal (RPA heterotrimer [2]; 12.5 nM RPA, anisotropy: same buffer, 30 C) [% bound]	binding signal (% of bound DNA released) (RPA heterotrimer [2]; N-HelQ titrated (up to 500 nM), anisotropy: same buffer …)
GTCGGATCCTCTAGACAGCATCCATGATCACTGGCACTGGTAGAATTCGGC / CAACGTCATAGACGATTACATTGCTACATGGATGCTGTCTAGAGGATCCGA [fork-2 fluorescein]	45.2	237		
GTCGGATCCTCTAGACAGCATCCATGATCACTGGCACTGGTAGAATTCGGC / CAACGTCATAGACGATTACATTGCTACATGGATGCTGTCTAGAGGATCCGA [fork-2]			100	40
